Source: US20230192896A1 (BIOVERATIV THERAPEUTICS, published 2023)
Substitutions are numbered along the chain they refer to.

B1: BIIB-12-909 (antibody, V domains shown)
VH: QVQLVESGGGVVQPGRSLRLSCAASGFTFSSYGMHWVRQAPGKGLEWVAVISYDGSNKYYADSVKGRFTISRDNSKNTLYLQMNSLRAEDTAVYYCAKGKHRRRSFDIWGQGTMVTVSS
VL: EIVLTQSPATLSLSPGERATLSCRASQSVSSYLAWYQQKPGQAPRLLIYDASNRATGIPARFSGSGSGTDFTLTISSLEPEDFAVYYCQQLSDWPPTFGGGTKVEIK
notes: IgG
B2: BIIB-12-933 (antibody, V domains shown)
VH: QVQLVESGGGVVQPGRSLRLSCAASGFTFSSYGMHWVRQAPGKGLEWVAVISYDGSNKYYADSVKGRFTISRDNSKNTLYLQMNSLRAEDTAVYYCARLPRFTGTAYWGQGTLVTVSS
VL: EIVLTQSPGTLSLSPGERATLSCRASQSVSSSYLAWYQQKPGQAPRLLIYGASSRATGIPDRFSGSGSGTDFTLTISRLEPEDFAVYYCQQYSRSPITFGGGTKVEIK
notes: IgG
B3: BIIB-12-919 (antibody, V domains shown)
VH: QVQLVQSGAEVKKPGASVKVSCKASGYTFTSYYMHWVRQAPGQGLEWMGVINPSGGSTSYAQKFQGRVTMTRDTSTSTVYMELSSLRSEDTAVYYCARGANIAVGRRYADYWGQGTLVTVSS
VL: DIQMTQSPSTLSASVGDRVTITCRASQSISSWLAWYQQKPGKAPKLLIYKASSLESGVPSRFSGSGSGTEFTLTISSLQPDDFATYYCQQVSSYPTFGGGTKVEIK
notes: IgG
B4: BIIB-12-911 (antibody, V domains shown)
VH: QVQLVESGGGVVQPGRSLRLSCAASGFTFSSYGMHWVRQAPGKGLEWVAVISYDGSNKYYADSVKGRFTISRDNSKNTLYLQMNSLRAEDTAVYYCARGRGMDVWGQGTTVTVSS
VL: EIVLTQSPATLSLSPGERATLSCRASQSVSSYLAWYQQKPGQAPRLLIYDASNRATGIPARFSGSGSGTDFTLTISSLEPEDFAVYYCQQRSNFPITFGGGTKVEIK
notes: IgG
B5: BIIB-12-913 (antibody, V domains shown)
VH: QVQLVQSGAEVKKPGASVKVSCKASGYTFTSYGISWVRQAPGQGLEWMGWISAYNGNTNYAQKLQGRVTMTTDTSTSTAYMELRSLRSDDTAVYYCARGGVSRFWGQGTLVTVSS
VL: EIVMTQSPATLSVSPGERATLSCRASQSVSSNLAWYQQKPGQAPRLLIYGASTRATGIPARFSGSGSGTEFTLTISSLQSEDFAVYYCQQYAPYPPLTFGGGTKVEIK
notes: IgG
B6: BIIB-12-915 (antibody, V domains shown)
VH: QLQLQESGPGLVKPSETLSLTCTVSGGSISSSRYYWGWIRQPPGKGLEWIGSIYYSGSTYYNPSLKSRVTISVDTSKNQFSLKLSSVTAADTAVYYCARVGGGYANPWGQGTLVTVSS
VL: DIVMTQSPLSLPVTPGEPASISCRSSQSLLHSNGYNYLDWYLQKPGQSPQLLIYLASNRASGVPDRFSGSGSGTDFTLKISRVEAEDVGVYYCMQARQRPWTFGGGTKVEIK
notes: IgG
B7: BIIB-12-930 (antibody, V domains shown)
VH: QVQLVQSGAEVKKPGASVKVSCKASGYTFTSYYMHWVRQAPGQGLEWMGIINPSGGSTSYAQKFQGRVTMTRDTSTSTVYMELSSLRSEDTAVYYCARVRQKATLLFQHWGQGTLVTVSS
VL: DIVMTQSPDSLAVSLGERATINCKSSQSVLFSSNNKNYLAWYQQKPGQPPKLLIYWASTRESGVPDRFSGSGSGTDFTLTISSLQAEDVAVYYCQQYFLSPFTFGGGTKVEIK
notes: IgG
B8: BIIB-12-927 (antibody, V domains shown)
VH: QVQLVQSGAEVKKPGASVKVSCKASGYTFTSYYMSWVRQAPGQGLEWMGIINPSGGSTSYAQKFQGRVTMTRDTSTSTVYMELSSLRSEDTAVYYCARDSGRKRYYYMDVWGKGTTVTVSS
VL: EIVMTQSPATLSVSPGERATLSCRASQSVSSNLAWYQQKPGQAPRLLIYGASTRATGIPARFSGSGSGTEFTLTISSLQSEDFAVYYCQQFNLWPFTFGGGTKVEIK
notes: IgG
B9: BIIB-12-931 (antibody, V domains shown)
VH: QVQLVQSGAEVKKPGASVKVSCKASGYTFTSYYMSWVRQAPGQGLEWMGIINPSGGSTSYAQKFQGRVTMTRDTSTSTVYMELSSLRSEDTAVYYCARDPVQEYGPYYYYMDVWGKGTTVTVSS
VL: B8 VL with F91A, N92A, L93Y, F96W
notes: IgG
B10: BIIB-12-936 (antibody, V domains shown)
VH: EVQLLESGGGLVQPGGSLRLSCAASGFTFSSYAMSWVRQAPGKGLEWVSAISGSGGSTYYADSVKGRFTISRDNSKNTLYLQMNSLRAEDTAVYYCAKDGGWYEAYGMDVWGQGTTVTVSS
VL: B8 VL with F91S, N92H, L93N, W94L, F96P
notes: IgG
B11: BIIB-12-916 (antibody, V domains shown)
VH: QVQLVQSGAEVKKPGASVKVSCKASGYTFTSYYMHWVRQAPGQGLEWMGIINPSGGSTSYAQKFQGRVTMTRDTSTSTVYMELSSLRSEDTAVYYCARGGRQKATRRVDVWGQGTVVTVSS
VL: DIQMTQSPSSLSASVGDRVTITCRASQSISSYLNWYQQKPGKAPKLLIYAASSLQSGVPSRFSGSGSGTDFTLTISSLQPEDFATYYCQQLAITPFTFGGGTKVEIK
notes: IgG
B12: BIIB-12-926 (antibody, V domains shown)
VH: B11 VH with G99D, Q102M, K103A, A104R, T105G, R106A, R107S, V108P, V110Y, V116L
VL: B8 VL with F91H, N92S, L93F, F96P
notes: IgG
B13: BIIB-12-920 (antibody, V domains shown)
VH: QVQLVQSGAEVKKPGASVKVSCKASGYTFTSYGISWVRQAPGQGLEWMGWISPYNGNTNYAQKLQGRVTMTTDTSTSTAYMELRSLRSDDTAVYYCARGSGHTTMFWGQGTLVTVSS
VL: EIVMTQSPATLSVSPGERATLSCRASQSVSSNLAWYQQKPGQAPRLLIYSASTRATGIPARFSGSGSGTEFTLTISSLQSEDFAVYYCQQANAYPPTFGGGTKVEI
notes: IgG
B14: BIIB-12-934 (antibody, V domains shown)
VH: QVQLVESGGGVVQPGRSLRLSCAASGFTFSSYGMHWVRQAPGKGLEWVAVISYDGSNKYYADSVKGRFTISRDNSKNTLYLQMNSLRAEDTAVYYCARESGGHSYGMDVWGQGTTVTVSS
VL: B13 VL with M4L, S50G, A91F, A93D, Y94H, P96I
notes: IgG
B15: BIIB-12-922 (antibody, V domains shown)
VH: QVQLVQSGAEVKKPGASVKVSCKASGYTFTSYYMHWVRQAPGQGLEWMGIINPSGGSTSYAQKFQGRVTMTRDTSTSTVYMELSSLRSEDTAVYYCARRGRIAGMWGQGTTVTVSS
VL: not shown
notes: IgG
B16: BIIB-12-923 (antibody, V domains shown)
VH: QVQLVQSGAEVKKPGASVKVSCKASGYTFTSYYMHWVRQAPGQGLEWMGIINPSGGSTSYAQKFQGRVTMTRDTSTSTVYMELSSLRSEDTAVYYCARGAGYLQRAFDIWGQGTMVTVSS
VL: DIQMTQSPSTLSASVGDRVTITCRASQSISSWLAWYQQKPGKAPKLLIYKASSLESGVPSRFSGSGSGTEFTLTISSLQPDDFATYYCQQFKSLSFTFGGGTKVEIK
notes: IgG
B17: BIIB-12-908 (antibody, V domains shown)
VH: QVQLVESGGGVVQPGRSLRLSCAASGFTFSSYGMHWVRQAPGKGLEWVAVISYDGSNKYYADSVKGRFTISRDNSKNTLYLQMNSLRAEDTAVYYCAKGPRGMDVWGQGTTVTVSS
VL: DIQLTQSPSSVSASVGDRVTITCRASQGISSWLAWYQQKPGKAPKLLIYGASSLQSGVPSRFSGSGSGTDFTLTISSLQPEDFATYYCQQGSSLPITFGGGTKVEIK
notes: IgG
B18: BIIB-12-921 (antibody, V domains shown)
VH: QVQLVESGGGVVQPGRSLRLSCAASGFTFSSYGMHWVRQAPGKGLEWVAVISYDGSNKYYADSVKGRFTISRDNSKNTLYLQMNSLRAEDTAVYYCAKVGDRGTRAFDPWGQGTLVTVSS
VL: B17 VL with L4M, S31R, G50A, S92N, S93V, L94F, I96L
notes: IgG
B19: BIIB-12-910 (antibody, V domains shown)
VH: QVQLQESGPGLVKPSQTLSLTCTVSGGSISSGGYYWSWIRQHPGKGLEWIGSIYYSGSTYYNPSLKSRVTISVDTSKNQFSLKLSSVTAADTAVYYCARGPLQRQVRYFDLWGRGTLVTVSS
VL: B11 VL with A92S, I93H
notes: IgG
B20: BIIB-12-924 (antibody, V domains shown)
VH: B1 VH with H101S, R102S, R103E, S105G, F106L, D107N, I108P, M114L
VL: B17 VL with L4M, G50A, S92N, L94F, I96L
notes: IgG
B21: BIIB-12-918 (antibody, V domains shown)
VH: QVQLVESGGGVVQPGRSLRLSCAASGFTFSSYGMHWVRQAPGKGLEWVAVISYDGSNKYYADSVKGRFTISRDNSKNTLYLQMNSLRAEDTAVYYCAKSLGGRSFDIWGQGTMVTVSS
VL: B11 VL with S31R, L91I, A92F, I93S, T94L, F96I
notes: IgG
B22: BIIB-12-1300 (antibody, V domains shown)
VH: B17 VH with K98R, P100S, R101K, G102Y, M103L, D104H, V105A, T111L
VL: B17 VL with L4M, G50A, G91A, L94F, I96P
notes: IgG
B23: BIIB-12-1309 (antibody, V domains shown)
VH: B1 VH with K98R, K100R, H101Y, R102T, R103S, S105Y, D107Q, I108H, M114L
VL: B17 VL with L4M, G50A, G91A, S92N
notes: IgG
B24: BIIB-12-932 (antibody, V domains shown)
VH: B18 VH with K98R, V99L, D101Y, T104A, R105S, P109I, L115M
VL: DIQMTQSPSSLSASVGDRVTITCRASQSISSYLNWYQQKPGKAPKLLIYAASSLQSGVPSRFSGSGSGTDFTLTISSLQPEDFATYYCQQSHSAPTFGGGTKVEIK
notes: IgG
B25: BIIB-12-935 (antibody, V domains shown)
VH: B14 VH with S100L, G101E, G102Y, H103G, S104H
VL: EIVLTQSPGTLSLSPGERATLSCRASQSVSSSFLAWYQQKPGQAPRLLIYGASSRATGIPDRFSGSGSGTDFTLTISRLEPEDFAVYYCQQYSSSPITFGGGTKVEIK
notes: IgG
B26: BIIB-12-914 (antibody, V domains shown)
VH: QVQLVQSGAEVKKPGASVKVSCKASGYTFTSYYMHWVRQAPGQGLEWMGIINPSGGSTSYAQKFQGRVTMTRDTSTSTVYMELSSLRSEDTAVYYCARAPRYRGTMDVWGQGTTVTVSS
VL: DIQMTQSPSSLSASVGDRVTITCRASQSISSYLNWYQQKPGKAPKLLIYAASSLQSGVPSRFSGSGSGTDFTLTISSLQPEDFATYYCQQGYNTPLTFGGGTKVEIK
notes: IgG; also called BIB-12-914
B27: BIIB-12-929 (antibody, V domains shown)
VH: B26 VH with A99D, P100Q, R101G, R103S, G104R, T105S, M106F, V108I, T114M
VL: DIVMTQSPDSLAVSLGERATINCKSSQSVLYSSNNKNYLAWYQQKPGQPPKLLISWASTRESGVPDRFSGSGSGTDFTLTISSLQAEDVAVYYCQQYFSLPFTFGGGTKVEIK
notes: IgG

biological target: T1, non-activatable Factor X (FXn) (Homo sapiens (Human), UniProt P00742 41-488, single biotin on the C-terminal BioTag); experiment: BLI; class meaning: paragraph 285
T1 construct: also called BIIB-FX-015

Binding result, binds:
B1, B2, B3, B4, B5, B6, B7, B8, B9, B10, B11, B12, B13, B14, B15, B16, B17, B18, B19, B20, B21, B22, B23, B24, B25, B26, B27
